In PMC6035275, “Structures of DNA-bound human ligase IV catalytic core reveal insights into substrate binding and catalysis”:

Legend:
[1] = biological target: T1, DNA ligase IV catalytic domain (lysyl-AMP at K273 in open complex) (human, UniProt P49917 1-620); assay: X-ray crystallography; lysyl-AMP (K273), open conformation, 10 mM MgCl2; 3.25 A; Crystals: protein pre-incubated with 4 mM MgCl2, 1 mM ATP, 1 h on ice, DNA added at 2:1 molar ratio, 1 h on ice; HEPES pH 7.5 (77-79 mM), ~7.8% isopropanol, ~15.5% PEG4000, ~13.6% glycerol, +/- 10 mM MgCl2, room temperature. Mutants only tested by ligation turnover (no binding read-out).; conditions: protein: recombinant; tags: 6xHis-SUMO, removed with Ulp1; nicked duplex, 18 bp, blunt ends; nick between strand 2 (11 nt) and strand 3 (7 nt)
T1 sequence: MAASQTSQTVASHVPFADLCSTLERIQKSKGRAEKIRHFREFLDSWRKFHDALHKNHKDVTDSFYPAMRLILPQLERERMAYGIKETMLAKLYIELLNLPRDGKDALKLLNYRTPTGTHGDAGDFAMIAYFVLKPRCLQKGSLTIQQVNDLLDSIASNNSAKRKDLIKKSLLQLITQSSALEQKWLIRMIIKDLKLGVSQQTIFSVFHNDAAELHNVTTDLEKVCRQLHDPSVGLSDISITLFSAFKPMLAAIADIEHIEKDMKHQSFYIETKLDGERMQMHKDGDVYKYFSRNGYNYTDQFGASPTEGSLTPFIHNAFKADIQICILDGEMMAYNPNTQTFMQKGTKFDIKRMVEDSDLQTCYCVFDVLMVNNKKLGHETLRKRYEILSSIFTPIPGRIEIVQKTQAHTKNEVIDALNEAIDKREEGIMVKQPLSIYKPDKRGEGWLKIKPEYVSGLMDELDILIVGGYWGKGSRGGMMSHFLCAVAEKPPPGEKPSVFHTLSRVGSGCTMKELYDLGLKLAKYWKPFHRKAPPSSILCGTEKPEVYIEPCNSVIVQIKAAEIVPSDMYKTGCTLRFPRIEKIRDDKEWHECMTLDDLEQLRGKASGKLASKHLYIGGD

[2] = biological target: T1, DNA ligase IV catalytic domain …; assay: X-ray crystallography; DNA-adenylate, closed conformation, no metal bound; Crystals: protein pre-incubated with 4 mM MgCl2, 1 mM ATP, 1 h on ice, DNA added at 2:1 molar ratio, 1 h on ice; HEPES pH 7.5 (77-79 mM), ~7.8% isopropanol, ~15.5% PEG4000, ~13.6% glycerol, +/- 10 mM MgCl2, room temperature. Mutants only tested by ligation turnover (no binding read-out).; conditions: protein: recombinant; tags: 6xHis-SUMO, removed with Ulp1; nicked duplex, 18 bp, blunt ends; nick between strand 2 (11 nt) and strand 3 (7 nt)

B1: nicked DNA duplex (crystal), 5'-phosphate downstream primer (dsDNA)
DNA 1: GTCCGACGACGCATCAGC
DNA 2: GCTGATGCGTC
DNA 3: GTCGGAC
modifications: upstream primer 3'-dideoxycytidine; downstream primer 5'-phosphate
binding result [1]: binds

B2: nicked DNA-adenylate duplex (crystal), 5'-AMP downstream primer (dsDNA)
DNA 1: GTCCGACGACGCATCAGC
DNA 2: GCTGATGCGTC
DNA 3: GTCGGAC
modifications: upstream primer 3'-dideoxycytidine; downstream primer 5'-adenylated (AMP-p, transferred from K273 in the complex)
binding result [2]: binds
